# Measured values taken from PMC4722173, “Identification of the Elusive Pyruvate Reductase of Chlamydomonas reinhardtii Chloroplasts” (Plant and Cell Physiology, 2015).
# T1: His-tagged Cr-LDH1 (Chlamydomonas reinhardtii, UniProt B0LUZ5)
# T1 construct: residues 45-421, putative 44-residue chloroplast transit peptide removed, C-terminal His tag kept, codon-optimized synthetic gene, pET28b, E. coli KRX; 40 kDa, tetramer (about 200 kDa)
# T1 sequence (B0LUZ5 45-421): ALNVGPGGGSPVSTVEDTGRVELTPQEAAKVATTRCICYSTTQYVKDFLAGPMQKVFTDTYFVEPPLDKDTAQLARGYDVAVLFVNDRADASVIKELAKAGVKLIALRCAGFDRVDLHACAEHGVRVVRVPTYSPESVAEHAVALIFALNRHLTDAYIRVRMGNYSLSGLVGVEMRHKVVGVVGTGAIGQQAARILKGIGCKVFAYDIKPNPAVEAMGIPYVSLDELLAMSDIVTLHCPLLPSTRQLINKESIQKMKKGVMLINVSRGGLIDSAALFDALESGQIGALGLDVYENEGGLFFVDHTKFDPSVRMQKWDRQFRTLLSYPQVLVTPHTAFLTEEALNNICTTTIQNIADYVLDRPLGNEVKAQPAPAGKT
# B1: His-tagged Cr-LDH1 (Chlamydomonas reinhardtii) (protein)
# chain: T1 sequence (B0LUZ5 45-421)
# notes: residues 45-421, putative 44-residue chloroplast transit peptide removed, C-terminal His tag kept, codon-optimized synthetic gene, pET28b, E. coli KRX; 40 kDa, tetramer (about 200 kDa)
# Tests used:
# [1] = molecular target: His-tagged recombinant Cr-LDH1 (NAD+-dependent D-lactate dehydrogenase encoded by Cre07.g324550), residues 45-421 (Chlamydomonas reinhardtii); assay: crystal structure; sitting drop, approximately 14.5 mg/ml protein with 300 µM NAD+, 20% PEG 3350, 200 mM potassium nitrate; 2.46 Å; tetramer as predicted by PISA
# [2] = molecular target: PFL1 (pyruvate formate lyase), endogenous, in Chlamydomonas reinhardtii whole-cell extract (Chlamydomonas reinhardtii (endogenous in whole-cell extract)); assay: native gel or EMSA; 1D BN-PAGE of C. reinhardtii whole-cell extracts, immunoblot with Cr-LDH1 or PFL1 antibodies
# His-tagged Cr-LDH1 [3] = molecular target: T1, His-tagged Cr-LDH1; assay: X-ray crystallography, […] Å; type: binding; details: 300 µM NAD+ in protein solution before crystallization; active site of each monomer, near H378, R311, E340
# His-tagged Cr-LDH1 [4] = molecular target: T1, His-tagged Cr-LDH1; assay: spectrophotometric NADH oxidation at […] nm; type: biochemical; details: 300 µM NADH with pyruvate; pH 7.5; 25 °C; mere turnover
# purified protein [5] = substrate: C[C@@H](O)C(=O)O; assay: purified protein; details: 300 µM NAD+, 25 mM sodium phosphate, 250 mM NaCl, pH 7.5, 25 °C
# purified protein [6] = substrate: CC(=O)C(=O)O; assay: purified protein; type: biochemical, Chlamydomonas reinhardtii; details: 300 µM NADH, 25 mM sodium phosphate, 250 mM NaCl, pH 7.5, 25 °C, mean ± SD of two protein preparations
# purified protein [7] = substrate: O=CC(=O)O; assay: purified protein; type: biochemical, Chlamydomonas reinhardtii; details: 300 µM NADH, 25 mM sodium phosphate, 250 mM NaCl, pH 7.5, 25 °C
molecule,measurement,setting,value
"His-tagged recombinant Cr-LDH1 (NAD+-dependent D-lactate dehydrogenase encoded by Cre07.g324550), residues 45-421 (enzyme)",stoichiometry N,[1],4
"PFL1 (pyruvate formate lyase), endogenous, in Chlamydomonas reinhardtii whole-cell extract (enzyme)",stoichiometry N,[2],2
NC(=O)c1ccc[n+]([C@@H]2O[C@H](COP(=O)(O)OP(=O)(O)OC[C@H]3O[C@@H](n4cnc5c(N)ncnc54)[C@H](O)[C@@H]3O)[C@@H](O)[C@H]2O)c1 [NAD^+],"X-ray crystallography, 2.46 Å",His-tagged Cr-LDH1 [3],NAD^+ molecules added during crystallization were observed in the active site of each monomer
NC(=O)C1=CN([C@@H]2O[C@H](COP(=O)(O)OP(=O)(O)OC[C@H]3O[C@@H](n4cnc5c(N)ncnc54)[C@H](O)[C@@H]3O)[C@@H](O)[C@H]2O)C=CC1 [NADH],spectrophotometric NADH oxidation at 340 nm,His-tagged Cr-LDH1 [4],preference for the reduction of pyruvate to D-lactate and a specificity for NADH
B1,Km,purified protein [5],70 mM
same,kcat,purified protein [5],10 s⁻¹
same,kcat/Km,purified protein [5],150 M⁻¹ s⁻¹
same,Km,purified protein [6],1.46 ± 0.01 mM
same,kcat,purified protein [6],370 ± 2 s⁻¹
same,kcat/Km,purified protein [6],255000 ± 7000 M⁻¹ s⁻¹
same,Km,purified protein [7],62 mM
same,kcat,purified protein [7],60 s⁻¹
same,kcat/Km,purified protein [7],1000 M⁻¹ s⁻¹
